From patent US20140038267A1 (ALLELE BIOTECHNOLOGY AND PHARMACEUTICALS, published 2014)

Target: the molecule itself
Assay: oligomeric state by size exclusion chromatography (self-association)
Text: FIG. 1. Size exclusion chromatography of LanYFP (tetramer), dLanYFP (dimer), and mNeonGreen (monomer). The exemplary proteins were detected with 480 nm excitation and 530 nm emission, compared to mCherry (monomer) detected with 540 nm excitation and 620 nm emission. Each exemplary fluorescent protein was run simultaneously with mCherry as a size standard with detection at both wavelengths; mCherry consistently eluted with the same peak shape and retention time. Curves are normalized to peak fluorescence.
Purified and dialyzed fluorescent protein samples were diluted into 50 mM Tris-HCl pH 7.5, 100 mM NaCl and filtered through 0.2 μm filters immediately prior to injection into a Shimadzu Nexera UHPLC equipped with a Waters BEH200 1.7 μm 4.6×150 mm size exclusion column and 4.6×30 mm guard column. Samples were run in the same buffer at a flow rate of 0.3 ml per minute for a total run time of 20 minutes. Fluorescence of the eluted protein was detected with an RF-20Axs fluorescence detector (Shimadzu) with 480 nm and 540 nm excitation and 530 nm and 620 nm emission wavelengths. Each LanYFP or variant sample was co-injected with mCherry, which had been purified under identical conditions and which served as a monomeric size standard.

B1: monomeric NeonGreen (mNeonGreen) (other)
chain: MVSKGEEDNMASLPATHELHIFGSINGVDFDMVGQGTGNPNDGYEELNLKSTKGDLQFSPWILVPHIGYGFHQYLPYPDGMSPFQAAMVDGSGYQVHRTMQFEDGASLTVNYRYTYEGSHIKGEAQVKGTGFPADGPVMTNSLTAADWCRSKKTYPNDKTIISTFKWSYTTGNGKRYRSTARTTYTFAKPMAANYLKNQPMYVFRKTELKHSKTELNFKEWQKAFTDVMGMDELYK
notes: not shown: N-terminal 6xHis tag and linker encoded by vector pNCS
- binding result: no binding
